From patent US20110313230A1 (LUDWIG INSTITUTE FOR CANCER RESEARCH, published 2011)
Where no end group is shown, it is not given here. The star is where a group is joined. Biotin = O=C1N[C@H]2[C@H](CS[C@H]2CCCCC(=O)*)N1

Key:
[1] = target: T1, de2-7 EGFR unique junctional peptide (human); assay: dot-blot immune stain
T1 construct: non-biotinylated; also called Junction Peptide
T1 peptide: LEEKKGNYVVTDH-OH
Method: Dot-blot immune stain experiments were also performed. Serial dilutions of peptide were spotted in 0.5 μl onto a PVDF or nitrocellulose membranes.

[2] = target: T2, Peptide C: LEEKKGNYVVTDH(K-Biot)-OH (biotin on the added C-terminal Lys (K-Biot)); assay: BIAcore, Peptide C on streptavidin chip
T2 construct: also called C-terminal biotinylated de2-7 peptide
T2 peptide: LEEKKGNYVVTDHK
Method: Serial dilutions of mAbs were tested for reactivity with the peptide. Blocking experiments using non-biotinylated peptide were performed to assess specificity.

[3] = target: T3, biotinylated de2-7 specific peptide Biotin-LEEKKGNYVVTDH (human); assay: ELISA on biotinylated peptide on streptavidin plates
T3 construct: also called unique de2-7 EGFR peptide
T3 peptide: Biotin-LEEKKGNYVVTDH
Method: Two types of ELISA were used to determine the specificity of the antibodies. […] Antibodies were added to wells in triplicate at increasing concentration in 2% HSA in phosphate-buffered saline (PBS).
Antibodies were bound and detected as in the first assay.

[4] = target: T4, EGFR fragment 475-621 displayed on yeast (human, UniProt P00533 499-645); assay: flow cytometry on yeast-displayed, c-myc-tagged EGFR fragment (native)
T4 construct: yeast surface display, C-terminal c-myc tag
Method: (§1) Briefly, transformed colonies were grown at 30° C. in minimal media containing yeast nitrogen base, casein hydrolysate, dextrose, and phosphate buffer pH 7.4, on a shaking platform for approximately one day until an OD₆₀₀ of 5-6 was reached. […] Cultures were then stored at 4° C. until analysis. […] The cells were then washed with ice cold FACS buffer and incubated with phycoerythrin-labelled anti-mouse IgG (1:25 dilution), in a final volume of 50 μl for 1 h at 4° C., protected from light. After washing the yeast cells with ice-cold FACS buffer, fluorescence data was obtained with a Coulter Epics XL flow cytometer (Beckman-Coulter), and analyzed with WinMDI cytometry software (J. Trotter, Scripps University). For determination of linear versus conformational epitopes, yeast cells were heated at 80° C. for 30 min, then chilled on ice 20 min prior to labeling with antibodies.

[5] = target: T5, EGFR fragment 1-294 displayed on yeast (human, UniProt P00533 25-318); assay: flow cytometry on yeast-displayed, c-myc-tagged EGFR fragment (native), indirect immunofluorescence
T5 construct: yeast surface display, C-terminal c-myc tag
Method: as §1

[6] = target: T6, anti-idiotype antibody LMH-12; assay: sandwich ELISA: plate coated with 10 µg/ml LMH-12, detection with biotinylated LMH-12 (10 µg/ml), avidin-HRP and ABTS
T6 construct: mouse IgG1 kappa

[7] = target: T7, EGFR fragment 1-176 displayed on yeast (human, UniProt P00533 25-200); assay: flow cytometry on yeast-displayed, c-myc-tagged EGFR fragment (native); fragment printed '1-716' on the sheet, 1-176 in the text
T7 construct: yeast surface display, C-terminal c-myc tag
Method: as §1

B1: mAb806 (antibody, V domains shown)
VH: DVQLQESGPSLVKPSQSLSLTCTVTGYSITSDFAWNWIRQFPGNKLEWMGYISYSGNTRYNPSLKSRISITRDTSKNQFFLQLNSVTIEDTATYYCVTAGRGFPYWGQGTLVTVSA
VL: DILMTQSPSSMSVSLGDTVSITCHSSQDINSNIGWLQQRPGKSFKGLIYHGTNLDDEVPSRFSGSGSGADYSLTISSLESEDFADYYCVQYAQFPWTFGGGTKLEIKR
notes: murine IgG2b
binding result [1]: no binding | binding result [2]: no binding (tested: 100 nM) | binding result [3]: no binding | binding result [4]: no binding (tested: 10 µg/ml) | binding result [5]: no binding (tested: 10 µg/ml) | EC50 (read off the curve) [6]: ~0.07 µg/mL | binding result [7]: no binding (tested: 10 µg/ml)
